Primed or numbered codes have the meaning given here. Where no end group is shown, it is not given here. [ ]: non-standard residue; d: D form. The star is where a group is joined. Biotin = O=C1N[C@H]2[C@H](CS[C@H]2CCCCC(=O)*)N1; Lys(N3) = [N-]=[N+]=NCCCC[C@H](N)C(=O)O; dPra = C#CC[C@@H](N)C(=O)O; PEG5″ = not defined here; PEG5′ = PEG5 linker
How the values were obtained:
[1] = molecular target: full length Akt1E17K (Homo sapiens (Human)) (UniProt P31749); assay: fluorescence polarization, in solution
[2] = molecular target: 6His-PEG5-Mut 33mer Fragment (E17K 33-mer epitope without alkyne click handle); assay: fluorescence polarization, in solution
[3] = molecular target: 6His-PEG5-WT 33mer Fragment (wildtype 33-mer epitope without alkyne click handle); assay: fluorescence polarization, in solution
[4] = molecular target: full length Akt1E17K (Homo sapiens (Human)) (UniProt P31749); assay: fluorescence polarization KD values compared
[5] = molecular target: E17K GST-PH Domain (Homo sapiens (Human)) (UniProt P31749); assay: ELISA, biotinylated ligand on streptavidin plate, GST-PH Domain titrated, anti-GST detection
[6] = molecular target: full length Akt1E17K (Homo sapiens (Human)) (UniProt P31749); assay: fluorescence polarization in solution, full-length Akt1 titrated
[7] = molecular target: T1, GFP-tagged E17K PH Domain protein (Homo sapiens (Human), UniProt P31749 1-124); assay: confocal imaging of HEK-293T cells expressing GFP-PH Domain
T1 construct: Cloned from pUNO-hAKT1 and mutated; also called GFP-E17K PHD; E17K mutant GFP-PH domain; not shown: GFP of the TOPO C-terminal GFP mammalian vector
T1 chain: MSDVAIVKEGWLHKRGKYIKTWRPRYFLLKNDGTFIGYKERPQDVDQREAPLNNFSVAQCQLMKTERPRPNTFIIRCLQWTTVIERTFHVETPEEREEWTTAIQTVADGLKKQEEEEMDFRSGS

[8] = molecular target: E17K GST-PH Domain (Homo sapiens (Human)) (UniProt P31749); assay: ELISA: biotinylated triligand candidate on streptavidin plate, GST-PH Domain titrated, anti-GST-HRP detection

6His-PEG5-Mut 33mer Fragment (E17K 33-mer epitope without alkyne click handle), sequence (peptide, as listed by the source E17K E17K): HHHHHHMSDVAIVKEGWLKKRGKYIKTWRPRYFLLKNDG
6His-PEG5-WT 33mer Fragment (wildtype 33-mer epitope without alkyne click handle), sequence (peptide, as listed by the source): as the sequence (peptide, as listed by the source E17K E17K) above, with K23E counted along it

[dY][dL][dE][dA][dF] (also: fluorescence polarization label not described) [yleaf (SEQ ID NO: 43) anchor ligand 4]
Kd [1]: 54 nM
Kd [2]: 328 nM
Kd [3]: 2800 nM
selectivity for E17K relative to WT (fold (E17K:WT)) [4]: 10

B1: yleaf(SEQ ID NO: 43)-Tz-yksy(SEQ ID NO: 76) biligand, N-terminal PEG5-biotin (peptide)
peptide 1: [dY][dL][dE][dA][dF]
peptide 2: [dY][dK][dS][dY]
modifications: not fully specified (N-terminus, C-terminus, bridges); also: triazole to a chain's N/C-terminus
EC50 [5]: 19 nM

{Biotin-PEG5′}-[dY][dL][dE][dA][dF] (not fully specified (C-terminus)) [Biotin-PEG5-yleaf(SEQ ID NO: 43)-Pra anchor ligand]
EC50 [5]: 61 nM

B2: triligand 9 (ivdae-yleaf-yksy, form used in fluorescence polarization) (peptide)
peptide 1: [dI][dV][dD][dA][dE]
peptide 2: [dY][dL][dE][dA][dF]
peptide 3: [dY][dK][dS][dY]
modifications: not fully specified (N-terminus, C-terminus); also: fluorescence polarization label, not described, triazole to a chain's N/C-terminus, triazole to a chain's N/C-terminus
EC50 (read off the curve) [6]: 100 nM

B3: Biotin-PEG5-ivdae(SEQ ID NO: 78)-yleaf(SEQ ID NO: 43)-yksy(SEQ ID NO: 76) triligand (peptide)
peptide 1: [dI][dV][dD][dA][dE]
peptide 2: [Lys(N3)][dY][dL][dE][dA][dF][dPra]
peptide 3: [dY][dK][dS][dY]
modifications: not fully specified (N-terminus, C-terminus); also: triazole to a chain's N/C-terminus, triazole to a chain's N/C-terminus
EC50 [5]: 45 nM

B4: PEG5-TAT-Cy5 (peptide)
peptide: [PEG5″]YGRKKRRQRR-Cy5
notes: Control without the yleaf anchor; also called blank of PEG5-TAT-Cy5; control with no anchor ligand peptide
binding result [7]: no binding (tested: 50 nM)

B5: triligand candidate iryrn (iryrn-yleaf-yksy) (peptide)
peptide 1: [dI][dR][dY][dR][dN]
peptide 2: [Lys(N3)][dY][dL][dE][dA][dF][dPra]
peptide 3: [dY][dK][dS][dY]
modifications: not fully specified (N-terminus, C-terminus); also: triazole to a chain's N/C-terminus, triazole to a chain's N/C-terminus
EC50 (read off the curve) [8]: 10 nM

— patent publication US20180072772A1 (CALIFORNIA INSTITUTE OF TECHNOLOGY, published 2018)
